Values belong to the compound of their own block, whether it stands above or below them.
Tests used:
TRAIL R1, R2, R3 and R4 = assay: TRAIL receptor membrane expression by flow cytometry; type: cell-based
Experimental: Analysis of TRAIL-receptor membrane expression was performed by FACS analysis as described previously^35. For death receptor expression after cisplatin exposure, cells were exposed for 4 h, washed with PBS and incubated for 20 h in regular culture medium, after which FACS analysis was performed. Cells were subsequently washed twice with cold PBS containing 2% FCS and 0.1% sodium azide and incubated with phycoerythrin (PE)-conjugated mouse monoclonal antibodies against DR4, DR5, DcR1 and DcR2. Mouse PE-labeled IgG1 and IgG2B were used as isotype controls. All PE-labeled antibodies were purchased from R&D systems (Oxon, UK). Membrane receptor expression was analyzed with Winlist and Winlist 32 software (Verity Software House, Inc., Topsham, Me.) and is shown as mean fluorescent intensity (MFI) of all analyzed cells.
In order to determine the cell surface expression of each of the TRAIL receptors on A2780 carcinoma cells, cells were washed twice in PBS containing 1% BSA and then incubated with monoclonal antibodies to DR4, DR5, DcR1 or DcR2 (Alexis) for 40 min. After two wash steps with PBS/BSA, anti-mouse IgG-FITC (Sigma) secondary antibody was added for 30 min. All incubations were carried out on ice. Negative controls contained isotype control antibody. Cells were analyzed by a FacsCalibur flow cytometer.

A2780-Luc xenografts = assay: IP A2780-Luc xenografts, bioluminescence imaging
Experimental: Visualization of response to TRAIL, TRAIL-DR5, cisplatin and to the combination of either ligand with cisplatin by means of bioluminescence imaging. Nude mice were inoculated IP with 2×10^6 A2780-Luc cells. After 5 days treatment was initiated; cisplatin (4 mg/kg IP) or vehicle at day 5 and 12, TRAIL, TRAIL-DR5 (5 mg/kg IP) or vehicle at day 5-10 and 12-16, or a combination of TRAIL or TRAIL-DR5 with cisplatin.
Female nude mice (Hsd:Athymic Nude-nu) were obtained from Harlan Nederland (Horst, The Netherlands) at 6-8 weeks of age (˜21 g). Inoculation was performed after 10 days of acclimatization.
Imaging was conducted with the IVIS 100 series (Xenogen Corporation Alameda, Calif.), composed of a cooled charge-coupled device camera connected to a light tight black chamber. Before in vivo imaging animals were anesthetized with 4% isoflurane and injected IP with D-luciferin (150 mg/kg, Xenogen) reconstituted in sterile PBS. Mice were placed in prone position on a warmed stage (37° C.) in the imaging chamber, and grayscale reference images were obtained under dim illumination. Pseudocolor images representing bioluminescent intensity were acquired with Livinglmage software (version 2.50, Xenogen) 10 and 15 min after D-luciferin injection in complete darkness. These images were superimposed on the grayscale images for analysis with Igor Pro software (version 4.09, WaveMetrics, Lake Oswego, Oreg.). All bioluminescence imaging (BLI) data are depicted in radiance units (photons/sec/cm^2/sr) enabling absolute comparisons between bioluminescent images and represent final data obtained after subtraction of the background signal.

A2780 cells = assay: Microculture tetrazolium cytotoxicity assay in A2780; type: cell-based, human; conditions: A2780, 4 h pre-incubation; read-out: inhibitory concentration 20% (IC20)
Experimental: The microculture tetrazolium assay, performed as described earlier^36, was used to measure cytotoxicity. […] In cell viability assays assessing combination treatment with cisplatin, the cells were pre-incubated for 4 h (h) with 2.5 μM cisplatin (inhibitory concentration 20%-IC20), before addition of 0-25 ng/ml TRAIL or TRAIL-DR5.

p53 = p53 protein expression in cervical cancer cell lines; type: cell-based
Experimental: All three cervical cancer cell lines were treated with increasing concentration of Bortezomib to assess expression of p53 protein.

Colo205 tumors = Colo205 tumors in athymic nude mice; type: in vivo; conditions: 40 and 200 mg/kg, 2×5 days
[1] = 125I-TRAIL biodistribution in tumor-bearing mice; type: in vivo
Experimental: Radioiodination of TRAIL was performed with a TRAIL solution of 1 mg/ml in a pH 7.4 TRIS buffer, containing 100 μM zinc sulphate and 10% glycerol. 45 μg TRAIL and 50 μg chloramine T (Merck, Amsterdam, The Netherlands) were allowed to react with 70 MBq ^125I-NaI in 0.05 M NaOH (pH 9.0, GE Healthcare, Eindhoven, The Netherlands) during 3 min at pH 8.0. The labeling reaction was terminated with sodium metabisulfite (Acros Organics, Geel, Belgium). Non-bound ^1251 was removed by gel filtration chromatography. The PD-10 column (Sephadex™ G-25M, Amersham Biosciences AB, Uppsala, Sweden) was eluted with TRIS buffer, containing 100 μM zinc sulphate, 10% glycerol and 0.5% human serum albumin. Nude mice with IP A2780-Luc xenografts were prepared, as described above.
The in vivo biodistribution study was conducted in 50 mice after establishment of A2780-Luc IP xenografts. ^125I-TRAIL (0.15 ml; 150 kBq, 0.5 μg) was administered IV through retro-orbital injection in 25 mice, and IP in 25 mice. At five time points after injection (t=15, 30, 60, 90 and 360 min) groups of 5 mice were sacrificed and organs and tissues were excised, rinsed for residual blood and weighed. Tumor tissue was additionally fixed in 10% buffered formalin for histological assessment. Samples were counted for radioactivity in a calibrated well-type LKB-1282-CompuGamma counter. Tissue activity was expressed as percentage of the injected dose/g tissue (% ID/g). Tumor-to- blood and tumor-to-muscle ratios were also calculated. All data were corrected for physical decay and compared with a known standard sample. Pharmacokinetic parameters were derived using the KINFIT module of the MW/PHARM computer program package (version 3.50, MediWare, Groningen, The Netherlands). Clearance rates of ^125I-TRAIL from the circulation were calculated using non-linear regression analysis.

[2] = Colo205, 5 mM Aspirin or 10 μM 5-Flurouracil, 24 h
[3] = Lovo, 2.5 mM Aspirin or 10 μM 5-Flurouracil, 24 h
[4] = SW948, 2.5 mM Aspirin or 10 μM 5-Flurouracil, 24 h

TRAIL receptor expression (TRAIL R1, R2, R3 and R4; [2]): induction of all TRAIL receptors
Compound: O=c1[nH]cc(F)c(=O)[nH]1 [5-Flurouracil]
TRAIL receptor expression (TRAIL R1, R2, R3 and R4; [3]): induction of TRAIL R2, R3 and R4 receptors | TRAIL receptor expression (TRAIL R1, R2, R3 and R4; [4]): did not lead to any induction of the TRAIL receptors

Compound: N.N.[Cl][Pt][Cl] [cisplatin, cis-diamminedichloroplatinum (II), reference compound]
TRAIL receptor expression (TRAIL R1, R2, R3 and R4; A2780): dose dependent upregulation of DR5 and DcR2 expression | mean signal reduction as to vehicle treated mice (A2780-Luc xenografts; day 16, IP treatment): 72.3% | light emission (bioluminescent signal) (A2780-Luc xenografts; day 16, mean±SEM): 1.3×10^8±2.4×10^7 radiance units | median survival (A2780-Luc xenografts; surrogate endpoint signal ≧3.1×10^8): 28 days | IC20 (A2780 cells): 2500 nM

Compound: CC(C)C[C@H](NC(=O)[C@H](Cc1ccccc1)NC(=O)c1cnccn1)B(O)O [Bortezomib]
induction of p53 protein (p53; Caski): can be seen at concentrations of 1 nM with largest induction seen at 5 and 10 nM | induction of p53 protein (p53; HELA): seen also at 5 and 10 nM, though relatively smaller | induction of p53 protein (p53; SiHa): can be seen at 5 and 10 nM | TRAIL receptor expression (TRAIL R1, R2, R3 and R4; Caski, 5 nM, 24 h): increased receptor expression of TRAIL R2 and slight increase of TRAIL R3 | TRAIL receptor expression (TRAIL R1, R2, R3 and R4; Hela, 10 nM, 24 h): increases receptor expression of all TRAIL receptors | TRAIL receptor expression (TRAIL R1, R2, R3 and R4; SIHA, 10 nM, 24 h): increases receptor expression of all TRAIL receptors

TRAIL receptor expression (TRAIL R1, R2, R3 and R4; [4]): induction TRAIL-R2 expression only
Compound: CC(=O)Oc1ccccc1C(=O)O [aspirin]
effect on tumor growth, aspirin alone (Colo205 tumors): no difference in effect | side effects (Colo205 tumors): no side effects were found | TRAIL receptor expression (TRAIL R1, R2, R3 and R4; [2]): induction TRAIL R2, R3 and R4 receptor expression | TRAIL receptor expression (TRAIL R1, R2, R3 and R4; [3]): induction TRAIL R4 and to a lesser extent TRAIL R2 receptor expression

Compound: 125I-TRAIL: radioiodinated TRAIL
cleaved caspase-3 staining in tumor tissue ([1]; 15 min after injection): almost no cleaved caspase-3 was detected | cleaved caspase-3 staining in tumor tissue ([1]; 360 min after injection): increased cleaved caspase-3 staining | blood activity ([1]; IP, 15 min): 25.30±5.04 % ID/g | kidney uptake ([1]; IP, 15 min): 19.83±1.38 % ID/g | tumor activity ([1]; IP, 15 min): 11.31±1.51 | tumor to blood ratio ([1]; IP, 15 min): 0.48±0.03 | blood activity ([1]; IP, 30 min): 15.33±3.78 % ID/g | kidney uptake ([1]; IP, 30 min): 21.45±1.90 % ID/g | tumor activity ([1]; IP, 60 min): 12.91±3.29 | tumor to blood ratio ([1]; IP, 60 min): 0.55±0.06 | blood activity ([1]; IP, 90 min): 23.74±6.85 % ID/g | kidney uptake ([1]; IP, 90 min): 17.87±1.28 % ID/g | blood activity ([1]; IP, 360 min): 8.26±1.74 % ID/g | kidney uptake ([1]; IP, 360 min): 4.45±0.31 % ID/g | blood activity ([1]; IV, 15 min): 43.29±11.04 % ID/g | kidney uptake ([1]; IV, 15 min): 199.2±40.69 % ID/g | tumor to blood ratio ([1]; IV, 15 min): 0.13±0.02 | blood activity ([1]; IV, 30 min): 30.51±12.40 % ID/g | kidney uptake ([1]; IV, 30 min): 126.6±49.68 % ID/g | tumor to blood ratio ([1]; IV, 60 min): 0.38±0.04 | tumor activity ([1]; IV, 60 min (maximum)): 6.85±1.29 | blood activity ([1]; IV, 90 min): 7.52±1.22 % ID/g | kidney uptake ([1]; IV, 90 min): 12.73±2.47 % ID/g | blood activity ([1]; IV, 360 min): 2.63±0.56 % ID/g | kidney uptake ([1]; IV, 360 min): 2.06±0.56 % ID/g
